Source: patent US20160046725A1 (PIERRE FABRE MEDICAMENT, published 2016)

T1: human Axl receptor on human tumor cells (human, UniProt P30530 26-894)
T1 sequence: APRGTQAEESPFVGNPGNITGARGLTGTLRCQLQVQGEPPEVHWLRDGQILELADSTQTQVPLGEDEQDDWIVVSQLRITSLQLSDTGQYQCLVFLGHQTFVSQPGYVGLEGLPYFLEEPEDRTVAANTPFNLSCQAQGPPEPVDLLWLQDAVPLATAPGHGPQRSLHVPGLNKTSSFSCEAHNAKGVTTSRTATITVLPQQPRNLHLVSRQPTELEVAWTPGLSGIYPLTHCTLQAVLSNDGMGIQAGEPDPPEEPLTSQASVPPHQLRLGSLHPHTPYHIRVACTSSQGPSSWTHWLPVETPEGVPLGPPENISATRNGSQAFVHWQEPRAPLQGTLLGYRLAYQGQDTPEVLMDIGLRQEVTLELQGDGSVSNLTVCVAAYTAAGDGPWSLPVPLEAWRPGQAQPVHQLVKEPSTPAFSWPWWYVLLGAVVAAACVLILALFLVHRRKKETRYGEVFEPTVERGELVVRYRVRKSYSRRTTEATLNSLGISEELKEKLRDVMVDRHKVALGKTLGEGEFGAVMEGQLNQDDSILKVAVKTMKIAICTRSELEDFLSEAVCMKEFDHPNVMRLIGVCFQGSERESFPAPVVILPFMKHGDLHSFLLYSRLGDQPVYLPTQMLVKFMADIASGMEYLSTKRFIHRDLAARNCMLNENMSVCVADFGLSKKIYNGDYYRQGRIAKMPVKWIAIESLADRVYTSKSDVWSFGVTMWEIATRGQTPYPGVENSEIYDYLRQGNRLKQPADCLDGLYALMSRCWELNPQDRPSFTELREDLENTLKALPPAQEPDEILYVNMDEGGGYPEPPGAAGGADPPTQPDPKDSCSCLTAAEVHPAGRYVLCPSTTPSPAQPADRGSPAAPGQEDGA

T2: recombinant mouse Axl-Fc protein (R and D Systems, cat N° 854-AX/CF) (mouse, UniProt Q00993 19-445)
T2 construct: extracellular domain; Bought construct; also called rmAxl-Fc; murine Axl ECD domain; not shown: Fc portion of the bought fusion (detected by anti-human IgG Fc)
T2 sequence (looked up): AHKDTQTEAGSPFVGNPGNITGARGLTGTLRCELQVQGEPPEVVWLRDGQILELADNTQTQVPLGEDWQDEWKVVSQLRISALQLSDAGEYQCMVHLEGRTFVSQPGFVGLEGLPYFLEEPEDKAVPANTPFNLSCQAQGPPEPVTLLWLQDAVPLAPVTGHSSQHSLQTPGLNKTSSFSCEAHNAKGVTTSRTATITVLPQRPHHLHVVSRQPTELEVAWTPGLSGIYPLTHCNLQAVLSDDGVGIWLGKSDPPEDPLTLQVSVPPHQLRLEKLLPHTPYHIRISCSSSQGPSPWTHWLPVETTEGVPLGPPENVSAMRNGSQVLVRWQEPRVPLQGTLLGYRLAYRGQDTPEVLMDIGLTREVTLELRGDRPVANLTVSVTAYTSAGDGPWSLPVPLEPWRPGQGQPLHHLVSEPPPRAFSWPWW


Tests used:
[1] = target: T1, human Axl receptor on human tumor cells; assay: cell-based or functional assay
[2] = target: T2, recombinant mouse Axl-Fc protein (R and …); assay: ELISA on coated rmAxl-Fc
Description: Briefly, the recombinant mouse Axl-Fc (R and D Systems, cat N° 854-AX/CF) proteins were coated overnight at 4° C. to Immulon II 96-well plates and, after a 1 h blocking step with a 0.5% gelatine solution, the 110D7, 1003A2, 1024G11, purified antibodies, respectively, were added for an additional 1 h at 37° C. at starting concentration of 5 μg/ml (3.33 10⁻⁸ M). Then ½ serial dilutions were done over 12 columns. Then plates were washed and a goat anti-mouse (Jackson) specific IgG HRP was added for 1 h at 37° C. Reaction development was performed using the TMB substrate solution. The commercial mouse anti-Axl Mab 154 antibody is also used in parallel. Coating controls are performed in presence of a goat anti-human IgG Fc polyclonal serum coupled with HRP (Jackson, ref 109-035-098) and in presence of a HRP-coupled anti-Histidine antibody (R and D Systems, ref: MAB050H). No specific binding is observed in absence of primary antibody (diluant).

Binder | Axl down-regulation at 4 h (western blot, SN12C) [1] [%] | Axl down-regulation at 24 h (western blot, SN12C) [1] [%] | maximal cytotoxic effect on SN12C cells (Mab-Zap assay) [1] [%] | binding result [2]
110D7 anti-Axl monoclonal antibody (antibody, V domains shown, Murine monoclonal antibody purified from a hybridoma; a mIgG1 isotype control (9G4) is used beside it; also called m110D7; monoclonal antibody 110D7 derived from the hybridoma I-3959) VH: EVKLVESGGGLVQPGGSLKLSCATSGFTFSDYYMYWVRQTPEKRLEWVAYISNGGGSTYYPDTVKGRFTMSRDNAKNTLYLQMSRLKSEDTAMYYCARLSFYAMDYWGQGTSVTVSS VL: DIVMTQSHKFMSTSVGDRVSITCKASQDVTTAVAWYQQKPGQSPKLLIYWASTRHTGVPDRFTGSGSGTDYTLTISSVQAEDLALYYCQQHYRIPFTFGSGTKLEIK | 50 | 84 | ~49 | –
1003A2 anti-Axl monoclonal antibody (antibody, V domains shown, Murine monoclonal antibody purified from a hybridoma; a mIgG1 isotype control (9G4) is used beside it; also called monoclonal antibody 1003A2 derived from the hybridoma I-4499) VH: EVKLVESGGGLVQPGGSLKLSCAASGFTFNSYSMSWVRQTPEKRLEWVAYISNGGGRTYYPDTIKGRFTLSRDNDRNTLYLQMSSLKSEDTAMYYCARGTTESYYALDYWGQGTSVTVSS VL: DIVMTQSHKFMSTSLGDRISITCKASQDVITAVAWYQQKPGQSPKLLIYWASTRHTGVPDRFTGSGSGTDYNLTISSVQAEDLALYYCQQHFSTPLTFGAGTKLELK | 66 | 89 | ~37 | no binding
1024G11 anti-Axl monoclonal antibody (antibody, V domains shown, Murine monoclonal antibody purified from a hybridoma; a mIgG1 isotype control (9G4) is used beside it; also called monoclonal antibody 1024G11 derived from the hybridoma I-4501) VH: EVKLVESGGGLVQPGGSLNLSCAASGFTFSSYSMSWVRQTPEKRLEWVAFISNGGGRTYYPDTVKGRFTFSRDNARNTLYLQMSSLNSEDTAMYFCARGTTESYYAMDYWGQGTSVTVSS VL: DIVMTQSHKFMSTSVGDRVSITCKASQDVITAVAWYQQKPGQSPKLLIYWASTRHTGVPDRFTGSGSGTDYTLTISSVQAEDLALYFCQQHLSTPLTFGAGTKLELK | 68 | 85 | ~40 | no binding
